Test results taken from publication PMC11286949, “Structural basis of tRNA recognition by the widespread OB fold”.
Residue numbers refer to the chain shown, from its start.

Legend:
Conditions in all cases: protein: recombinant; tags: His-MBP removed; tRNA fold
Arc1p dN R274A = target: T1, Arc1p dN R274A (Saccharomyces cerevisiae, UniProt P46672 132-376, R274A;del1-131); assay: ITC; ITC (Arc1p): 25 mM Tris-HCl pH 7.4, 150 mM NaCl, 2 mM MgCl2, 25 °C. FP and competition FP: 25 mM Tris-HCl pH 7.5, 150 mM NaCl (Arc1p) or 50 mM NaCl (Trbp111), 2 mM MgCl2, room temperature
T1 sequence: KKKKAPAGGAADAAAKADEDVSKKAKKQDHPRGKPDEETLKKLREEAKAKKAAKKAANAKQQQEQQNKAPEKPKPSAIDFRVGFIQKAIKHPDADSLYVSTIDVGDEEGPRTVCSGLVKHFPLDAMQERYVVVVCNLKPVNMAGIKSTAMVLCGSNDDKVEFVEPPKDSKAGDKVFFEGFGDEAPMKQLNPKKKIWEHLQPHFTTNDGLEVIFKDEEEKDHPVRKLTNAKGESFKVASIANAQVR

Arc1p dN K269A = target: T2, Arc1p dN K269A (Saccharomyces cerevisiae, UniProt P46672 132-376, K269A;del1-131); assay: as above
T2 sequence: T1 sequence with K138A, A143R

[1] = target: T3, Arc1p dN V271A/M273A/M281A (Saccharomyces cerevisiae, UniProt P46672 132-376, V271A;M273A;M281A;del1-131); assay: as above
T3 sequence: T1 sequence with V140A, M142A, A143R, M150A

Arc1p dN = target: T4, Arc1p dN (Saccharomyces cerevisiae, UniProt P46672 132-376, del1-131); assay: competition fluorescence polarization; ITC (Arc1p): 25 mM Tris-HCl pH 7.4, 150 mM NaCl, 2 mM MgCl2, 25 °C. FP and competition FP: 25 mM Tris-HCl pH 7.5, 150 mM NaCl (Arc1p) or 50 mM NaCl (Trbp111), 2 mM MgCl2, room temperature
T4 sequence: T1 sequence with A143R

Arc1p = target: T5, Arc1p (Saccharomyces cerevisiae, UniProt P46672 1-376); assay: as above
T5 sequence: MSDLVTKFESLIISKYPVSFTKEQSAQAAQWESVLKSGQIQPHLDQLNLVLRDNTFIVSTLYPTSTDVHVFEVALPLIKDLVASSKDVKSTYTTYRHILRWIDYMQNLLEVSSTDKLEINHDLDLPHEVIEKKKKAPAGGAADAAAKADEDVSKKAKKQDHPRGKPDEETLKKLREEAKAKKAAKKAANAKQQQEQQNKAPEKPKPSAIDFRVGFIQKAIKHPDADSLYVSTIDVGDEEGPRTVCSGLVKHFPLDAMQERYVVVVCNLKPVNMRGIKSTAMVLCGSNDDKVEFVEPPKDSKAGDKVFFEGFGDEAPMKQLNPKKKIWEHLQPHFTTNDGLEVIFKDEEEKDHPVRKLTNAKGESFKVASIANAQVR

B1: tRNAIle WT (structured_RNA)
RNA: AGGCUUGUAGCUCAGGUGGUUAGAGCGCACCCCUGAUAAGGGUGAGGUCGGUGGUUCAAGUCCACUCAGGCCUACCA
With B1 the Kd (Arc1p dN R274A) was 2980 ± 674 nM, the Kd (Arc1p dN K269A) was 1500 ± 55 nM and the Kd [1] was 544 ± 215 nM. For the same binder, the IC50 (Arc1p dN) was 363 ± 96.4 nM and the IC50 (Arc1p) was 948 ± 241 nM.
